Test results as given in patent publication US20240270857A1 (CHIA TAI TIANQING PHARMACEUTICAL GROUP, published 2024).

T1: CynoIL36R-ECD mFc recombinant protein (cynomolgus monkey)
T1 construct: Made in ExpiCHO, purified on Protein A; also called cynomolgus IL-36R extracellular region with mouse antibody heavy chain Fc
T1 chain: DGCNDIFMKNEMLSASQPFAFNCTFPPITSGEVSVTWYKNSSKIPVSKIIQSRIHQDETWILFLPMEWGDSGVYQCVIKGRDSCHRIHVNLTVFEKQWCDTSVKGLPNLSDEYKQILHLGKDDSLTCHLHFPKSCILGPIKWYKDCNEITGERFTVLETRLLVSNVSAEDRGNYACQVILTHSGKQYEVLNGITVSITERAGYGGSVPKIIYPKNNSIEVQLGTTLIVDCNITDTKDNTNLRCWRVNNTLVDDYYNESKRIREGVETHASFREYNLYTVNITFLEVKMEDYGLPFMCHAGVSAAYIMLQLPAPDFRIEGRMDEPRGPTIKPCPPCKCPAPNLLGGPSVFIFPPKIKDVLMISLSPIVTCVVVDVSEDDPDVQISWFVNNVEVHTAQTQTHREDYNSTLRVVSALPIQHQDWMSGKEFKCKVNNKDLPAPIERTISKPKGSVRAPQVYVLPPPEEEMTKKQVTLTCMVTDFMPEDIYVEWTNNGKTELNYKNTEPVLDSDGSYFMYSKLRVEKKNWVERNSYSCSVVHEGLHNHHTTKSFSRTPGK

T2: IL-36R naturally expressed on OVCAR8 cells and on normal human epidermal keratinocytes (NHK cells) (human, UniProt Q9HB29 20-575)
T2 sequence (looked up): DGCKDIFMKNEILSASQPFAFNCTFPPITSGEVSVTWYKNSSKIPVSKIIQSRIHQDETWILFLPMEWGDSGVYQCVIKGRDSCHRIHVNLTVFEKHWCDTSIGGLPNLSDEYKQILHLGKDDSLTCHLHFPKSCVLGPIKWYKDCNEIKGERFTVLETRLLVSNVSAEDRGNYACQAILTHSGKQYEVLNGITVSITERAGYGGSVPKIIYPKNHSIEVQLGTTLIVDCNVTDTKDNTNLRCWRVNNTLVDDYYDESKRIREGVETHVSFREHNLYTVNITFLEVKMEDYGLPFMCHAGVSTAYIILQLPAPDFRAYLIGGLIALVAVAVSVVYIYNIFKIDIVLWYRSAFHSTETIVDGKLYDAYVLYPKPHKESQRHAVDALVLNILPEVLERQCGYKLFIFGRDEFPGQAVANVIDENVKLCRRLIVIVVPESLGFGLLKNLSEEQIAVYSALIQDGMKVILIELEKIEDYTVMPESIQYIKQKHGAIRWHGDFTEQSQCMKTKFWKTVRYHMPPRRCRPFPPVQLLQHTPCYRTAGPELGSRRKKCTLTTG

T3: human IL-36R overexpressed on 293T-hIL36R-NFκB cells (human, UniProt Q9HB29 20-575)
T3 sequence: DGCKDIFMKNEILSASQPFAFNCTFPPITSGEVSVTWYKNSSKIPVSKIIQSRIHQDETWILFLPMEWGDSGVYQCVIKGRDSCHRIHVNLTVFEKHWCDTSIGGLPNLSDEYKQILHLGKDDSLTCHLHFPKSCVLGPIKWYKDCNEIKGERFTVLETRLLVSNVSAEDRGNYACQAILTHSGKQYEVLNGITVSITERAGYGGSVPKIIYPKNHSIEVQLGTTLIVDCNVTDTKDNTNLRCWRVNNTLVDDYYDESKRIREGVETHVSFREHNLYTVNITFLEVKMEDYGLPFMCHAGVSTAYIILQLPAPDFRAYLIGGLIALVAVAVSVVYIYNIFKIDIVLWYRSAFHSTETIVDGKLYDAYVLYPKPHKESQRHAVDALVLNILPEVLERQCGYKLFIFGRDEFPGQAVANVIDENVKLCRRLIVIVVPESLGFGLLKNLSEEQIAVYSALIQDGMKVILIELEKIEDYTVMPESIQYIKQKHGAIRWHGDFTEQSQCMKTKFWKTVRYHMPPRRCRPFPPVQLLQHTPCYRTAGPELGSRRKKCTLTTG


What was measured:
[1] = biological target: T1, CynoIL36R-ECD mFc recombinant protein; assay: ELISA, plate coated with CynoIL36R-ECD mFc, HRP-protein A/G, OD450
Description: The binding activity of anti-IL-36R antibodies to IL-36R was analyzed by ELISA using human IL-1Rrp2/IL-1R6 protein, His Tag (ACROBiosystems, IL2-H52H6) and CynoIL36R-ECD mFc (for detection of chimeric and humanized antibodies), and hIL36R-ECD hFc and CynoIL36R-ECD hFc protein (for detection of hybridoma antibodies) as antigens. A 96-well plate (Costar, 9018) was coated with 2 μg/mL antigen at 100 μL/well and incubated overnight at 4° C. After the 96-well plate was washed with a washing buffer (PBS containing 0.05% v/v Tween 20), a blocking buffer (PBS containing 2% bovine serum albumin) was added for blocking at 37° C. for 2 h. After the 96-well plate was washed with the washing buffer, 100 μL of the gradient diluted anti-IL-36R antibody of the present disclosure or the reference antibody BI655130 (the initial concentration of the antibody was 66 nM, 4-fold gradient dilution) was added to each well, and the plate was incubated at room temperature for 1 h. After the 96-well plate was washed with the washing buffer, 100 μL of horseradish peroxidase-conjugated recombinant protein A/G (TheroScientific, 32490) was added to each well, and the plate was incubated at room temperature for 1 h. After the 96-well plate was washed with the washing buffer, 100 μL of a TMB solution (Thermo, 00-4201-56) was added to each well, and the plate was incubated at room temperature for 2 min. Finally, 100 μL of a stop solution (2 N H₂SO₄) was added to each well to stop the reaction. Absorbance was read at 450 nm using a microplate reader (PE, Envision), the resulting data was analyzed using GraphPad Prism, and EC₅₀ was calculated. Binding EC₅₀ of the chimeric anti-IL-36R antibodies to hIL-36R in an ELISA assay is shown in FIG. 1. and binding EC₅₀ of the chimeric anti-IL-36R antibodies to CynoIL-36R in an ELISA assay is shown in FIG. 2. The binding of BI655130 is shown as a control, and the binding of IgG4 is shown as a negative control.

[2] = biological target: T2, IL-36R naturally expressed on OVCAR8 …; assay: cell-based or functional assay
[3] = biological target: T3, human IL-36R overexpressed on …; assay: cell-based or functional assay

Row | Binder | EC50 [1] | IC50 (M); hIL36α; IL-8 production [2] | IC50 (M); hIL36αβγ; IL-8 production [2] | IC50 (M); hIL36β; IL-8 production [2] | IC50 (M); hIL36γ; IL-8 production [2] | Maximum inhibition rate %; hIL36α; IL-8 production [2] | Maximum inhibition rate %; hIL36αβγ; IL-8 production [2] | Maximum inhibition rate %; hIL36β; IL-8 production [2] | Maximum inhibition rate %; hIL36γ; IL-8 production [2] | IC50 (M); hIL36α; NFκB-luciferase [3] | IC50 (M); hIL36αβγ; NFκB-luciferase [3] | IC50 (M); hIL36β; NFκB-luciferase [3] | IC50 (M); hIL36γ; NFκB-luciferase [3] | Maximum inhibition rate %; hIL36α; NFκB-luciferase [3] | Maximum inhibition rate %; hIL36αβγ; NFκB-luciferase [3] | Maximum inhibition rate %; hIL36β; NFκB-luciferase [3] | Maximum inhibition rate %; hIL36γ; NFκB-luciferase [3]
1 | hz72C1-1.2 (antibody, human IgG4 S228P, kappa, Humanized, human IgG4 / kappa) heavy: not shown light: DIQMTQSPSSLSASVGDRVTITCRASSNVRYMYWYQQKPGKAPKLWIYLTSNLASGVPSRFSGSGSGTSYTLTISSLQPEDFATYYCQQFTTSPYTFGQGTKLEIKRTVAAPSVFIFPPSDEQLKSGTASVVCLLNNFYPREAKVQWKVDNALQSGNSQESVTEQDSKDSTYSLSSTLTLSKADYEKHKVYACEVTHQGLSSPVTKSFNRGEC | 4.26 nM | 6.21e-11 M | 8.82e-11 M | 2.61e-11 M | 1.38e-11 M | 98.9% | 97.9% | 98.2% | 98.2% | 1.04e-08 M | ~4.15e-08 M | 5.07e-09 M | 2.18e-08 M | 101% | 86.7% | 96.9% | 98.4%
2 | hz72C1-1.1 (antibody, human IgG4 S228P, kappa, Humanized, human IgG4 / kappa; also called humanized 72C1 antibody 1.1) heavy: not shown light: DIQMTQSPSSLSASVGDRVTITCRASSNVRYMYWYQQKPGKAPKLWIYLTSNLASGVPSRFSGSGSGTSYTLTISSLQPEDFATYYCQQFTTSPYTFGQGTKLEIKRTVAAPSVFIFPPSDEQLKSGTASVVCLLNNFYPREAKVQWKVDNALQSGNSQESVTEQDSKDSTYSLSSTLTLSKADYEKHKVYACEVTHQGLSSPVTKSFNRGEC | 2.73 nM | 3.02e-11 M | 9.17e-11 M | 4.11e-11 M | 2.59e-11 M | 99% | 97.5% | 98.4% | 98.2% | 9.56e-09 M | 5.27e-08 M | 3.07e-09 M | 2.82e-08 M | 99.6% | 109% | 94.6% | 98.1%
3 | hz72C1-2.1 (antibody, human IgG4 S228P, kappa, Humanized, human IgG4 / kappa) heavy: not shown light: DIQMTQSPSSLSASVGDRVTITCRASSNVRYMYWYQQKPGKAPKLWIYLTSNLASGVPSRFSGSGSGTSYTLTISSLQPEDFATYYCQQYTTSPYTFGQGTKLEIKRTVAAPSVFIFPPSDEQLKSGTASVVCLLNNFYPREAKVQWKVDNALQSGNSQESVTEQDSKDSTYSLSSTLTLSKADYEKHKVYACEVTHQGLSSPVTKSFNRGEC | 10.5 nM | 1.43e-10 M | 3.97e-10 M | 9.9e-11 M | 8.27e-11 M | 98.6% | 96.4% | 98.3% | 97.8% | 9.83e-09 M | 6.62e-08 M | 5.08e-09 M | 3.72e-08 M | 87.9% | 70.5% | 92.3% | 85.4%
4 | hz72C1-1.3 (antibody, human IgG4 S228P, kappa, Humanized, human IgG4 / kappa) heavy: not shown light: DIQMTQSPSSLSASVGDRVTITCRASSNVRYMYWYQQKPGKAPKLWIYLTSNLASGVPSRFSGSGSGTSYTLTISSLQPEDFATYYCQQFTTSPYTFGQGTKLEIKRTVAAPSVFIFPPSDEQLKSGTASVVCLLNNFYPREAKVQWKVDNALQSGNSQESVTEQDSKDSTYSLSSTLTLSKADYEKHKVYACEVTHQGLSSPVTKSFNRGEC | 2.86 nM | 4.08e-11 M | 8.4e-11 M | 1.6e-11 M | 2.42e-11 M | 99% | 97.7% | 98.4% | 98.3% | 6.82e-09 M | 4.03e-08 M | 3.88e-09 M | 1.88e-08 M | 98.7% | 90.1% | 96.7% | 101%
5 | BI655130 (antibody, human IgG1, kappa, L234A L235A, also called Spesolimab) heavy: not shown light: QIVLTQSPGTLSLSPGERATMTCTASSSVSSSYFHWYQQKPGQAPRLWIYRTSRLASGVPDRFSGSGSGTDFTLTISRLEPEDAATYYCHQFHRSPLTFGAGTKLEIKRTVAAPSVFIFPPSDEQLKSGTASVVCLLNNFYPREAKVQWKVDNALQSGNSQESVTEQDSKDSTYSLSSTLTLSKADYEKHKVYACEVTHQGLSSPVTKSFNRGEC | 1.97 nM | 4.34e-11 M | 4.88e-11 M | 1.57e-11 M | 1.42e-11 M | 99.8% | 99.9% | 99.7% | 99.7% | 6.09e-09 M | 2.36e-08 M | 2.45e-09 M | ~1.32e-08 M | 84.5% | 81.2% | 86.7% | 79.2%
